In US20260234269A1 (TRUEBINDING, published 2026):
Residue numbers refer to the chain shown, from its start.

T1: hGal3 peptide 1 (human)
T1 construct: also called peptide 1 of Gal3
T1 peptide: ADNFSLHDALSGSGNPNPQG

T2: hGal3 peptide 2 (human)
T2 peptide: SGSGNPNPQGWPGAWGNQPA

T3: hGal3 peptide 4 (human)
T3 peptide: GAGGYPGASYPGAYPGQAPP

T4: hGal3 peptide 7 (human)
T4 peptide: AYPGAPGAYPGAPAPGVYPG

B1: mIMT001 (IMT001) (antibody, V domains shown)
VH: QIQLVQSGPELKKPGETVKISCKASGYTFTNYGMNWVKQAPGKGLKWMGWINTNTGEPTYVEEFKGRFAFSLETSASTAYLQINNLKNEDTATYFCAPYDNFFAYWGQGTLVTVSA
VL: DIVITQDELSNPVTSGESVSISCRSSKSLLYKDGKTYLNWFLQRPGQSPQLLIYLMSTHASGVSDRFSGSGSGTDFTLEISRVKAEDVGVYYCQQLVDYPLTFGAGTKLELK
notes: treated here as one molecule; also called mAb IMT001; Gal3 antibody clone IMT001
B2: mouse TIM-3 Fc protein (R&D systems) (Fc fusion, UniProt Q8VIM0 20-191, looked up)
chain: RSLENAYVFEVGKNAYLPCSYTLSTPGALVPMCWGKGFCPWSQCTNELLRTDERNVTYQKSSRYQLKGDLNKGDVSLIIKNVTLDDHGTYCCRIQFPGLMNDKKLELKLDIKAAKVTPAQTAHGDSTTASPRTLTTERNGSETQTLVTLHNNNGTKISTWADEIKDSGETIR
notes: also called mTIM-3 Fc; mTIM-3-Fc; not shown: Fc, detected with anti-human Fc / anti-human IgG
B3: 7D8.2D8 (antibody, V domains shown)
VH: EVQLVESGGGLVKPGGSLKLSCAASGFTFSSYAMSWVRQTPEKRLEWVATISDGGIYTYYPDNVKGRFTISRDNAKNNLFLQMSHLKSEDTAMYYCVRDGGYWGQGTTLTVSS
VL: DVLMTQTPLSLPVSLGDQASISCRSSQSIVHSNGNTYLEWYLQKPGQSPKLLIYKVSNRFSGVPDRFSGSGSGTDFTLKISRVEAEDLGVYYCFQGSHVPLTFGAGTKLELK
notes: murine antibody
B4: 15F10.2D6 (antibody, V domains shown)
VH: B3 VH with T28A, I56V, P61T, N63H, K76E, N77D, F80Y
VL: B3 VL with S32N, A105G
notes: murine antibody

Tests used:
[1] = biological target: T5, mouse Gal3 on mouse cells (B16F10 tumor cells, RAW264.7 macrophages) (mouse, UniProt P16110 2-264); experiment: flow cytometry, RAW cells, IMT001 10 ug/ml
T5 construct: whole, on cells; also called mGal3; Gal3 on RAW cells

[2] = biological target: T1, hGal3 peptide 1; experiment: dot blot, 20 ug peptide per dot, anti-mIgG HRP
[3] = biological target: T2, hGal3 peptide 2; experiment: dot blot, 20 ug peptide per dot, anti-mIgG HRP
[4] = biological target: T3, hGal3 peptide 4; experiment: dot blot, 20 ug peptide per dot, anti-mIgG HRP
[5] = biological target: T4, hGal3 peptide 7; experiment: dot blot, 20 ug peptide per dot, anti-mIgG HRP
[6] = biological target: T6, Human Galectin-3 protein (Acro Biosystems, GA3-H5129) (human, UniProt P17931 2-250); experiment: ELISA, hGal3 coated, antibody 3 ug/mL, competitor hTIM3
T6 construct: Bought protein; also called hGal3; Gal3; not shown: linker-spaced 6-histidine tag

[7] = biological target: T6, Human Galectin-3 protein (Acro …); experiment: SPR Biacore T200, antibody captured, Galectin-3 analyte
[8] = biological target: T7, mouse Gal3 protein (BioLegend) (mouse, UniProt P16110 2-264, limits assumed); experiment: ELISA, mGal3 coated, mouse TIM-3 Fc
T7 construct: also called mGal3

[9] = biological target: T8, Flag-tagged human Gal3 protein on A20 cells (A20 Gal3 cells) (human, UniProt P17931 2-250); experiment: flow cytometry, A20 Gal3 cells, anti-hFc APC
T8 construct: also called A20 cells overexpressing human Gal3; not shown: Flag tag

[10] = biological target: T2, hGal3 peptide 2; experiment: peptide ELISA, 20-mer library (Epitope Mapping)
[11] = biological target: T4, hGal3 peptide 7; experiment: peptide ELISA, 20-mer library (Epitope Mapping)

T6 sequence (P17931 2-250): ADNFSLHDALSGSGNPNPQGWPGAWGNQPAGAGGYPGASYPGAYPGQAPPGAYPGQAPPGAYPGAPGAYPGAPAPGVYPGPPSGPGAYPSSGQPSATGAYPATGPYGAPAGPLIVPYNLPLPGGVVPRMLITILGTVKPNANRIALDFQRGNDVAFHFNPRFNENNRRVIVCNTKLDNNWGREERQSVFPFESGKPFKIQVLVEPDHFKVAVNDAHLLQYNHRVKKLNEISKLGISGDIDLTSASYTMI
T7 sequence (P16110 2-264 limits assumed): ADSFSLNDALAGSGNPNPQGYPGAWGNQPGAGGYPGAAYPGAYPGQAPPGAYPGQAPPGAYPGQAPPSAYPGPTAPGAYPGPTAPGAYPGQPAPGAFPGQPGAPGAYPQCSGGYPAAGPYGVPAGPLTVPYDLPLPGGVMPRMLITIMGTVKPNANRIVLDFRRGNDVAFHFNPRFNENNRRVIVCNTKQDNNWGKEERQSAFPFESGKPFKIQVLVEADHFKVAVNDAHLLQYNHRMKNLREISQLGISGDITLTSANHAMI
T5 sequence (P16110 2-264, one chain of several): as the sequence (P16110 2-264 limits assumed) above

Row | Binder | MFI, fold over isotype control antibody [1] [fold] | binding result [2] | binding result [3] | binding result [4] | binding result [5] | GAL3-TIM3 Blocking @ 3 ug/mL [6] [%] | Kd [7] [nM] | binding result [8] | binding result [9] | binding result [10] | binding result [11]
1 | B1 | > 10 | no binding (tested: 1 ug/ml) | no binding (tested: 1 ug/ml) | no binding (tested: 1 ug/ml) | no binding (tested: 1 ug/ml) | 80 | 1.67 | – | – | – | –
2 | B2 | – | – | – | – | – | – | – | binds | binds | – | –
3 | B3 | – | – | – | – | – | 12 | 2.49 | – | – | binds | binds
4 | B4 | – | – | – | – | – | 19 | 2.06 | – | – | binds | binds
